Test results published in publication PMC4980431, “Ctf4 Is a Hub in the Eukaryotic Replisome that Links Multiple CIP-Box Proteins to the CMG Helicase” (Molecular Cell, 2016).
“Also recorded” adds a separate entry of the source. Where no end group is shown, it is not given here. fluorescein = amino-terminal fluorescein label

What was measured:
[1] = target: T1, Ctf4 471-927 (Ctf4CTD) (Saccharomyces cerevisiae, UniProt Q01454); assay: Fluorescence anisotropy, peptide binding to Ctf4 471-927; design: species or system budding yeast; details: 40 nM fluorescein-labeled Tof2 peptide, pH 7.2, 25°C, single measurement
T1 sequence (Q01454 471-927): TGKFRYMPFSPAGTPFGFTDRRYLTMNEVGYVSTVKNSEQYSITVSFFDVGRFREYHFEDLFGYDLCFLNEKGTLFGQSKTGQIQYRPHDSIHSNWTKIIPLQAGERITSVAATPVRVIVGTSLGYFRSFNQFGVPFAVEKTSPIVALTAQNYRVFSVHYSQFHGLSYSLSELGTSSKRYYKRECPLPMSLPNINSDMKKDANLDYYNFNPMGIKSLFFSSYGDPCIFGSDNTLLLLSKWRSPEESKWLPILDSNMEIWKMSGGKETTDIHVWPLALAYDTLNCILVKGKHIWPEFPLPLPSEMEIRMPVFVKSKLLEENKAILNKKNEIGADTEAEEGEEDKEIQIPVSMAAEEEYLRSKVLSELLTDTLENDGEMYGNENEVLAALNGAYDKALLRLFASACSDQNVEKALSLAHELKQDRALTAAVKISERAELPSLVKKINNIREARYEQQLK
Protocol: (§1) The lowest concentration of peptide at which the binding studies could be performed was determined via peptide calibration curves. Fluorescence anisotropy measurements were recorded in a PHERAstar Plus multi-detection plate reader (BMG Labtech) equipped with fluorescence polarization optic module (λex = 485 nm; λem = 520 nm) at 25°C. Each data point is the mean of 200 flashes/well. The voltage gain was set by adjusting the target mP values of fluorescein-labeled peptides relative to that of fluorescein (35 mP). Serial dilutions of Ctf4CTD were made in 20 mM HEPES (pH 7.2), 140 mM KCl, and 5% (w/v) glycerol in the presence of 40 nM (Sld5 and Tof2) or 50 nM (Dna2) fluorescein-labeled peptide. For Dna2 peptide, each data point is the mean of three independent experiments and curve fitting to the experimental data was performed in pro Fit 6.2 (QuantumSoft) using a Levenberg-Marquardt fitting algorithm in combination with a Gaussian error distribution analysis.

[2] = system: Ctf4 471–927; assay: Native mass spectrometry; type: binding, budding yeast; details: for direct binding to Ctf4 (in words): 500 mM ammonium acetate, 5-fold or 10-fold molar excess of peptide, 100 μM protein, minimum 30 min
Protocol: In preparation for non-denaturing nano-electrospray ionization mass spectrometry (native mass spectrometry), Ctf4 471–927 was subjected to two successive rounds of buffer exchange into 500 mM ammonium acetate using illustra NAP-5 columns (GE Healthcare). Following buffer exchange, a 5-fold or 10-fold molar excess of Dna2 peptide 207- […] -223 or Tof2 peptide 497- […] -517 solubilized in 500 mM ammonium acetate was mixed with Ctf4CTD at a final protein concentration of 100 μM and incubated for a minimum of 30 min. Native mass spectra were recorded on a Synapt HDMS instrument (Waters) and calibrated using caesium iodide (100 mg ml^−1) as described previously ([Hernández and Robinson, 2007], [Simon et al., 2014]).

[3] = system: Ctf4 471–927 (Ctf4CTD); assay: GST pull-down; type: binding, budding yeast; details: GST fusion on Glutathione Sepharose; Ctf4CTD 2 mg/ml, 1 hr 4°C; SDS-PAGE
Protocol: For each Dna2 construct to be tested for interaction with Ctf4CTD, a 25-ml E. coli Rosetta2 (DE3) culture overexpressing the GST-fusion construct was pelleted, resuspended in buffer (50 mM Tris [pH 7.0], 500 mM NaCl, 10% [w/v] glycerol, 1 mM DTT, and protease inhibitors) (Sigma), and lysed by sonication. Following centrifugation, the soluble extract was mixed with 50 μl of Glutathione Sepharose beads (GE Healthcare) pre-equilibrated in the same buffer, and incubated under rotation at 4°C for 1 hr. Unbound protein was removed by three consecutive washes with 1 ml of buffer, followed by three 1-ml washes with pull-down buffer (20 mM HEPES [pH 7.2], 150 mM NaCl, 5% [w/v] glycerol, 0.1% Igepal CA-630, 1 mM TCEP, and 1% BSA). Subsequently, 500 μl of purified Ctf4CTD protein at a concentration of 2 mg/ml was added to the Sepharose beads and binding was allowed to take place for an additional 1 hr at 4°C. The binding reaction was stopped by two consecutive washes with 1 ml of pull-down buffer and a final 1 ml wash with pull-down buffer without BSA. The Sepharose beads were mixed with SDS loading dye and Ctf4CTD interactions with the respective bait proteins were detected via SDS-PAGE.

[4] = target: Pol1 CIP-box (Saccharomyces cerevisiae) (UniProt P13382); details: cited from earlier work
[5] = target: Sld5 CIP-box (Saccharomyces cerevisiae) (UniProt Q03406); details: cited from earlier work
[6] = system: Ctf4-I901E (471-927); assay: Fluorescence anisotropy, Sld5 peptide binding to Ctf4-I901E; design: species or system budding yeast; details: Figure S2B; 40 nM fluorescein-labeled Sld5 peptide, pH 7.2, 25°C
Protocol: as §1

[7] = system: Ctf4-4E (471-927); assay: Fluorescence anisotropy, Sld5 peptide binding to Ctf4-4E; design: species or system budding yeast; details: Figure S2B; 40 nM fluorescein-labeled Sld5 peptide, pH 7.2, 25°C
Protocol: as §1

[8] = target: T2, Ctf4 471–927 (budding yeast, UniProt Q01454 471-927); assay: fluorescence polarisation; fluorescence anisotropy; serial dilutions of Ctf4CTD with 40 nM (Sld5, Tof2) or 50 nM (Dna2) fluorescein-labeled peptide; 20 mM HEPES pH 7.2, 140 mM KCl, 5% glycerol, 25°C; details: both partners purified
T2 construct: also called Ctf4CTD; source: purified Ctf4CTD protein
T2 sequence (looked up): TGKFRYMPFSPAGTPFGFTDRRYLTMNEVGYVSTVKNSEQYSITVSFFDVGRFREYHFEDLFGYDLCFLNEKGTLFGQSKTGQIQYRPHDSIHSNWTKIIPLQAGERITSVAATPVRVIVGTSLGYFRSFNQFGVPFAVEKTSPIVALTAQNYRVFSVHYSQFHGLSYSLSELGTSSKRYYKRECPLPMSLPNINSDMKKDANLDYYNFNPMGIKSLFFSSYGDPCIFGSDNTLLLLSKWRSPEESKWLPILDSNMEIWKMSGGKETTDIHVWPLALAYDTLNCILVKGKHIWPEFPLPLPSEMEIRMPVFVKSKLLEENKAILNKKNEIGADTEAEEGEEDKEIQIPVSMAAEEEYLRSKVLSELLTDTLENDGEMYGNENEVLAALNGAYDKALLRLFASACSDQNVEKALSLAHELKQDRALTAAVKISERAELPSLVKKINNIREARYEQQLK

[9] = target: T2, Ctf4 471–927; assay: native MS; 5-fold or 10-fold molar excess of peptide mixed with 100 μM Ctf4CTD in 500 mM ammonium acetate, at least 30 min; details: both partners purified
[10] = target: T2, Ctf4 471–927; assay: pull-down; GST fusion on Glutathione Sepharose beads; 500 μl purified Ctf4CTD at 2 mg/ml, 1 hr at 4°C; 20 mM HEPES pH 7.2, 150 mM NaCl, 5% glycerol, 0.1% Igepal CA-630, 1 mM TCEP, 1% BSA; SDS-PAGE; details: both partners purified
[11] = system: Pol1; assay: Yeast two-hybrid with Pol1; type: binding, budding yeast
Protocol: (§2) Yeast growth, two-hybrid analysis, and immunoprecipitation experiments were performed as described in detail previously ([Maculins et al., 2015], [Maric et al., 2014]). A two-hybrid screen against amino acids 461–927 of Ctf4 was performed by the company Hybrigenics.

[12] = system: Dna2; assay: Yeast two-hybrid with Dna2; type: binding, budding yeast
Protocol: as §2

[13] = system: Tof2; assay: Yeast two-hybrid with Tof2; type: binding, budding yeast
Protocol: as §2

[14] = system: Dpb2; assay: Yeast two-hybrid with Dpb2; type: binding, budding yeast
Protocol: as §2

[15] = system: CMG helicase; assay: Co-purification with CMG helicase from yeast cell extracts; type: cell-based, budding yeast; details: extracts of S phase yeast cells; immunoprecipitation, immunoblotting
Protocol: (D) Cultures of ctf4-4E MCM4-9MYC (YFV13) and MCM4-9MYC control cells (YSS75) were synchronized in G1-phase at 30°C and then released into S phase for 20 min. The Mcm4-9MYC was isolated from cell extracts by immunoprecipitation and the associated proteins monitored by immunoblotting. (E) ctf4-4E is synthetic lethal with mrc1Δ. The cells were processed as in Figure 1A, and the photos in the lower images were taken after 20 hr growth at 30°C (the scale bars represent 50 μm). See also Figure S2. TEXT PRINTED IN THE PICTURE: (C) Ctf4-4E (471-927): 162 kDa
as §2

[16] = SEC-MALS; type: physicochemical; details: residues 471–927, 2 mg/ml, 20 mM HEPES pH 7.2, 160 mM NaCl
Protocol: 100 μl of Ctf4CTD 4E mutant protein (with mutated binding site for type I CIP-boxes) at a concentration of 2 mg/ml was loaded onto a Superdex S200 HR 10/300 gel-filtration column (GE Healthcare) in 20 mM HEPES pH 7.2, 160 mM NaCl at a flow rate of 0.5 ml/min. The column was controlled using an Äkta Purifier System (GE Healthcare) and was linked to a DAWN 8^+ 8-angle light scattering detector (Wyatt Technology) with a fused silica sample cell using a laser wavelength of 664 nm. The change in the refractive index was detected using an Optilab T-rEX refractometer with extended range (Wyatt Technology) using a wavelength of 658 nm. Data collection and analysis was carried out using the ASTRA6 software package (Wyatt Technology). Molecular weight determination across the sample peak was carried out using a Zimm-plot derived global fitting algorithm with a fit degree of 1 and a dn/dc value of 0.1850 ml/g.

SHAKDVKIQETIRKLNRFKPT [Tof2 peptide]
Kd (result in words) [1]: too weak to be quantified reliably
Kd (result in words) ([1]; listed as Tof2): not determinable
direct binding to Ctf4 (in words) ([2]; listed as Tof2 CIP): binds directly to Ctf4
direct binding to Ctf4 (in words) ([2]; listed as peptide containing the Tof2 CIP-box): could indeed bind directly to Ctf4 in vitro
hierarchy of affinities / occupancy of binding sites by CIP-box peptides ([2]; hierarchy of affinities said to be reflected in native MS occupancy, Figures S3B and S4A, Simon et al., 2014): Sld5 > Pol1 > Dna2 > Tof2
pull-down of Ctf4 (in words) [3]: could indeed bind directly to Ctf4 in vitro

Ctf4 (from UniProt Q01454)
Kd [4]: 25 µM
Kd [5]: 5 µM

Sld5 peptide (1-19): isolated peptide containing the Sld5 CIP-box, residues 1-19 (MDINIDDILAELDKETTAV; also: fluorescein-labeled, end not given here; UniProt Q03406 1-19, looked up, fragment)
binding to Ctf4-I901E (in words) [6]: blocked binding; also recorded: neither Ctf4-4E nor Ctf4-I901E could bind
binding to Ctf4-4E (in words) [7]: blocked binding; also recorded: neither Ctf4-4E nor Ctf4-I901E could bind

B1: Dna2 peptide 207–223 (peptide)
peptide: fluorescein-SLRNIDDILDDIEGDLT
notes: Dna2, yeast, residues 207-223; also called Dna2 CIP-box peptide; isolated peptide containing the Dna2 CIP-box; source: synthetic peptide (Cambridge Peptides)
Kd [8]: 230 µM

B2: Tof2 peptide 497–517 (peptide)
peptide: fluorescein-SHAKDVKIQETIRKLNRFKPT
notes: Tof2, yeast, amino acids 497-517; also called Tof2 CIP-box peptide; peptide containing the Tof2 CIP-box; source: synthetic peptide (Cambridge Peptides)
binding result [9]: binds

B3: GST-Dna2 CIP-box 207–223 (domain or fragment, yeast)
chain: SLRNIDDILDDIEGDLT
notes: Dna2, budding yeast, residues 207-223 (CIP-box)
binding result [10]: binds

B4: Ctf4-4E: Ctf4 L867E-A871E-A897E-I901E, mutated binding site for type I CIP-boxes (protein, UniProt Q01454 2-927, looked up, variant L867E A871E A897E I901E)
DNA polymerase alpha-binding …: VSVIDKLVFDFGGKTLVSLAPDNNTLCVANKNGLTKILKTNNPEEEPETLDSSKLVSSIKCYSNSHFLMTTMQGDALRYNIDSSQEELLARFALPLRDCCVIHSGKMAVFGGDDLELILLELDDETHKKHAIKIDEQVSQISYNSQMNILAVSMINGKVQIFSLTSTIPNKVHELNDYIVANSYDDTHRDKILSNMMDDIDKDNDNDLSETADPDENNVADPEFCAANRICTRVAWHPKGLHFALPCADDTVKIFSIKGYSLQKTLSTNLSSTKAHFIDLQFDPLRGTYIAAVDLNNKLTVWNWETSEIHYTREFKRKITNIAWKIQADSKTLDLVLGTWSGSIAIVQNLAESVVSNIPDQSVAESSTKHGLFVDSESDLENLEGNDDINKSDKLFSDITQEANAEDVFTQTHDGPSGLSEKRKYNFEDEEDFIDDDDGAGYISGKKPHNEHSYSRVHKTHSFPISLANTGKFRYMPFSPAGTPFGFTDRRYLTMNEVGYVSTVKNSEQYSITVSFFDVGRFREYHFEDLFGYDLCFLNEKGTLFGQSKTGQIQYRPHDSIHSNWTKIIPLQAGERITSVAATPVRVIVGTSLGYFRSFNQFGVPFAVEKTSPIVALTAQNYRVFSVHYSQFHGLSYSLSELGTSSKRYYKRECPLPMSLPNINSDMKKDANLDYYNFNPMGIKSLFFSSYGDPCIFGSDNTLLLLSKWRSPEESKWLPILDSNMEIWKMSGGKETTDIHVWPLALAYDTLNCILVKGKHIWPEFPLPLPSEMEIRMPVFVKSKLLEENKAILNKKNEIGADTEAEEGEEDKEIQIPVSMAAEEEYLRSKVLSELLTDTLENDGEMYGNENEVLAALNGAYDKALERLFESACSDQNVEKALSLAHELKQDRALTEAVKESERAELPSLVKKINNIREARYEQQLK
interaction with Pol1 (in words) [11]: does not interact with the amino terminus of Pol1; also recorded: unable to interact
interaction with Dna2 (in words) [12]: unable to interact
interaction with Tof2 (in words) [13]: still able to interact
interaction with Dpb2 (in words) [14]: still able to interact
association with CMG helicase (in words) [15]: unable to interact with the CMG helicase
oligomeric state (in words) ([16]; SEC-MALS): able to form a trimer in vitro; also recorded: trimeric
molecular mass by SEC-MALS ([16]; printed in Figure 2C): 162 kDa
